What was measured:
CELF1 RRM1/2 [1] = target: T1, CELF1 RRM1/2 (UniProt Q92879 1-187); experiment: FP competition
CELF1 RRM1/2 [2] = target: T1, CELF1 RRM1/2; experiment: FP
CELF1 RRM1/2 S147A = CELF1 RRM1/2 S147A (UniProt Q92879 1-187, S147A); experiment: FP
Chain of CELF1 RRM1/2 S147A (Q92879 1-187 S147A): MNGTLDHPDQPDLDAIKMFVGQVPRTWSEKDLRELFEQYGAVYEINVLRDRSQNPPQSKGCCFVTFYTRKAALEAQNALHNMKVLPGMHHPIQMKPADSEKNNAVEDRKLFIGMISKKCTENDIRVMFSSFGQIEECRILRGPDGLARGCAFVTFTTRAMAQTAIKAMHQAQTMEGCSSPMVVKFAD

T1 sequence (Q92879 1-187): as the sequence (Q92879 1-187 S147A) above, with A147S counted along it

| Binder | binding result (CELF1 RRM1/2 [1]) | binding result (CELF1 RRM1/2 [2]) | binding result (CELF1 RRM1/2 S147A) |
| --- | --- | --- | --- |
| UUGUUGUU (ssRNA) [GU cold probe] | binds | – | – |
| UUGUUGUU (ssRNA) [GU probe] | – | binds | binds |
